Results: publication PMC7111323 (Cell, 2016)
Where two headings read alike, the source gives them in different places.

T1: full-length human NPC1 (Niemann-Pick C1) (human, UniProt O15118 23-1278)
T1 sequence: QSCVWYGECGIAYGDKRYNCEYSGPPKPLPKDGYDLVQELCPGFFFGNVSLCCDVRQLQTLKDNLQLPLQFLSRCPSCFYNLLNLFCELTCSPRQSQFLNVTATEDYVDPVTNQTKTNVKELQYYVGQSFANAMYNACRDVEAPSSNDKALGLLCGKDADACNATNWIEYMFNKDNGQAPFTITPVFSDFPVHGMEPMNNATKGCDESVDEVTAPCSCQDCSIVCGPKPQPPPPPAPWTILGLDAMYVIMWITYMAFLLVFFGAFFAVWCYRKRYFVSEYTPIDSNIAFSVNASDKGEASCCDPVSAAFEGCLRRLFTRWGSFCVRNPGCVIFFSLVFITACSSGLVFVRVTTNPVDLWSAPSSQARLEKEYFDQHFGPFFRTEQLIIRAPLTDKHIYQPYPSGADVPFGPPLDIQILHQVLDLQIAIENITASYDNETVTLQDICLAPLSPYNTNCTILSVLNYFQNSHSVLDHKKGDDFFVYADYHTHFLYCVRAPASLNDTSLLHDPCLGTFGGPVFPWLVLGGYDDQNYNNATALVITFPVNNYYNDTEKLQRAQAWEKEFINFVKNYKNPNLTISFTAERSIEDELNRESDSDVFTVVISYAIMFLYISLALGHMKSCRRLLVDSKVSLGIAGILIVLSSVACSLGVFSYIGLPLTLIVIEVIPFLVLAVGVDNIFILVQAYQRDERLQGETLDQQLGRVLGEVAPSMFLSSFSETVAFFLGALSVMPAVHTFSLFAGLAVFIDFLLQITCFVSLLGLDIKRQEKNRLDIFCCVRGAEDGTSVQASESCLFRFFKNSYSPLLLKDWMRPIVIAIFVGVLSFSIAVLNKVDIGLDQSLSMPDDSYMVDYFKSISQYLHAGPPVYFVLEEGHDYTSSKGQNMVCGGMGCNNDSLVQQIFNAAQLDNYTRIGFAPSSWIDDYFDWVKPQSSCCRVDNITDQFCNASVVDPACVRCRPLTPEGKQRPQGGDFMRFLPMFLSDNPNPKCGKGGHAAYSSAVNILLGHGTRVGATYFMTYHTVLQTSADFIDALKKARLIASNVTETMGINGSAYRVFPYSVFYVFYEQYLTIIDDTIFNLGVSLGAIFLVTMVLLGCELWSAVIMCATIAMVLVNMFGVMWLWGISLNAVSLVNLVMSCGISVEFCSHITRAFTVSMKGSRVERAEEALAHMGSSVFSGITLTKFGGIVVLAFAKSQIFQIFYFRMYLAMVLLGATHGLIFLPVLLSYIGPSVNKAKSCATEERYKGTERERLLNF

B1: human NPC2 (natural protein)
chain: EPVQFKDCGSVDGVIKEVNVSPCPTQPCQLSKGQSYSVNVTFTSNIQSKSSKAVVHGILMGVPVPFPIPEPDGCKSGINCPIQKDKTYSYLNKLPVKSEYPSIKLVVEWQLQDDKNQSLFCWEIPVQIVSHL
B2: human NPC1 ΔLinker (full length with internal deletion of the Pro-rich segment 249…257) (natural protein)
chain: QSCVWYGECGIAYGDKRYNCEYSGPPKPLPKDGYDLVQELCPGFFFGNVSLCCDVRQLQTLKDNLQLPLQFLSRCPSCFYNLLNLFCELTCSPRQSQFLNVTATEDYVDPVTNQTKTNVKELQYYVGQSFANAMYNACRDVEAPSSNDKALGLLCGKDADACNATNWIEYMFNKDNGQAPFTITPVFSDFPVHGMEPMNNATKGCDESVDEVTAPCSCQDCSIVCGAPWTILGLDAMYVIMWITYMAFLLVFFGAFFAVWCYRKRYFVSEYTPIDSNIAFSVNASDKGEASCCDPVSAAFEGCLRRLFTRWGSFCVRNPGCVIFFSLVFITACSSGLVFVRVTTNPVDLWSAPSSQARLEKEYFDQHFGPFFRTEQLIIRAPLTDKHIYQPYPSGADVPFGPPLDIQILHQVLDLQIAIENITASYDNETVTLQDICLAPLSPYNTNCTILSVLNYFQNSHSVLDHKKGDDFFVYADYHTHFLYCVRAPASLNDTSLLHDPCLGTFGGPVFPWLVLGGYDDQNYNNATALVITFPVNNYYNDTEKLQRAQAWEKEFINFVKNYKNPNLTISFTAERSIEDELNRESDSDVFTVVISYAIMFLYISLALGHMKSCRRLLVDSKVSLGIAGILIVLSSVACSLGVFSYIGLPLTLIVIEVIPFLVLAVGVDNIFILVQAYQRDERLQGETLDQQLGRVLGEVAPSMFLSSFSETVAFFLGALSVMPAVHTFSLFAGLAVFIDFLLQITCFVSLLGLDIKRQEKNRLDIFCCVRGAEDGTSVQASESCLFRFFKNSYSPLLLKDWMRPIVIAIFVGVLSFSIAVLNKVDIGLDQSLSMPDDSYMVDYFKSISQYLHAGPPVYFVLEEGHDYTSSKGQNMVCGGMGCNNDSLVQQIFNAAQLDNYTRIGFAPSSWIDDYFDWVKPQSSCCRVDNITDQFCNASVVDPACVRCRPLTPEGKQRPQGGDFMRFLPMFLSDNPNPKCGKGGHAAYSSAVNILLGHGTRVGATYFMTYHTVLQTSADFIDALKKARLIASNVTETMGINGSAYRVFPYSVFYVFYEQYLTIIDDTIFNLGVSLGAIFLVTMVLLGCELWSAVIMCATIAMVLVNMFGVMWLWGISLNAVSLVNLVMSCGISVEFCSHITRAFTVSMKGSRVERAEEALAHMGSSVFSGITLTKFGGIVVLAFAKSQIFQIFYFRMYLAMVLLGATHGLIFLPVLLSYIGPSVNKAKSCATEERYKGTERERLLNF

Key:
Test in all cases: ITC
[1] = molecular target: T1, full-length human NPC1 (Niemann-Pick C1)
[2] = molecular target: T1, full-length human NPC1 (Niemann-Pick C1); remark: listed apart in the source
[3] = molecular target: B1

Binder | Kd [1] [µM] | Kd [2] [µM] | Kd [3] [µM]
B1 | 217 ± 35.3 | 15.8 ± 1.2 | 
B2 |  |  | 266 ± 25.5
